This experiment deals with Met (hepatocyte growth factor receptor, c-Met) on Hep3B cells (human) (UniProt P08581). Briefly: flow cytometry saturation binding on Hep3B (cytochalasin D pre-treated), specific binding after subtraction of binding in saturating HGF; 0.015 wt % MC40 (~6 peptides/particle).

Among the data in patent US20140079774A1 are Kd values, retold here.

For orientation: Kd means a measure of binding affinity in units of concentration.

Where no end group is shown, it is not given here.

Chain of UniProt P08581 (P08581 25-1390): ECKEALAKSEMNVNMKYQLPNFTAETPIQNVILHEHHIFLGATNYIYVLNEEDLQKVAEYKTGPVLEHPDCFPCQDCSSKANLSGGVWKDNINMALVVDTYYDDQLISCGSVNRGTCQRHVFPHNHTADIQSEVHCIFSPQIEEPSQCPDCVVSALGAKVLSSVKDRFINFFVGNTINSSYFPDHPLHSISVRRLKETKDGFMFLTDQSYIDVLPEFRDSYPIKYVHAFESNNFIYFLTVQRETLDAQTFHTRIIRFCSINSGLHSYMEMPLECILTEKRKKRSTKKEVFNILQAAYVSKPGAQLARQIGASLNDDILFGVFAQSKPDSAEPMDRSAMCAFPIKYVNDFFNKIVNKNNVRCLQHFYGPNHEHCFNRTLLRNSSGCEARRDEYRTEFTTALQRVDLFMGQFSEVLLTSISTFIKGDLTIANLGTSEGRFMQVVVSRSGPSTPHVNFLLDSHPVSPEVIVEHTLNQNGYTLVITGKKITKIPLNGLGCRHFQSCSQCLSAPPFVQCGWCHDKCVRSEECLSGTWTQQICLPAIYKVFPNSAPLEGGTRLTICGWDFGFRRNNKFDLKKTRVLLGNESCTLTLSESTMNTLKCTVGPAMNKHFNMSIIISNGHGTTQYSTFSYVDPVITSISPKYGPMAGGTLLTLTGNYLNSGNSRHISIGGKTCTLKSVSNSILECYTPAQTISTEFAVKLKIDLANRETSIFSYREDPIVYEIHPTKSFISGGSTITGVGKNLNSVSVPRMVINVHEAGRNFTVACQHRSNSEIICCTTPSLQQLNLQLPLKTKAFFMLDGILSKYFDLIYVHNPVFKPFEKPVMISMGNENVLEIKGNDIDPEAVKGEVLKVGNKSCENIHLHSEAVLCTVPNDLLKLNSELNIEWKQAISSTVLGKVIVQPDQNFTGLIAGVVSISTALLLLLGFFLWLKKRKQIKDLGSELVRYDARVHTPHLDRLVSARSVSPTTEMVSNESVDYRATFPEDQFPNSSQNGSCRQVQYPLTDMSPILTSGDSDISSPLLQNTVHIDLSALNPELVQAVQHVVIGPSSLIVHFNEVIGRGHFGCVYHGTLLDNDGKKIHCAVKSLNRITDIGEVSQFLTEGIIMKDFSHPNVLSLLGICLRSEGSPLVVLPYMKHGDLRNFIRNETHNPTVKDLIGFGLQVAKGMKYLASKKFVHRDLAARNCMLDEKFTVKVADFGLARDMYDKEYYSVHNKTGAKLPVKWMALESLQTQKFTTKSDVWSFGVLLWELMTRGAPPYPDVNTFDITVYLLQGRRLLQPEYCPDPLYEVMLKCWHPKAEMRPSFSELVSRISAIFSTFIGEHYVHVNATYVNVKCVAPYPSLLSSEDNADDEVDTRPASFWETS

B1: MC40-targeted protocells (mesoporous silica nanoparticle-supported lipid bilayers displaying the MC40 targeting peptide) (peptide, not shown: small tags and cut ends)
peptide: ASVHFPPC
modifications: also: C-terminal Cys conjugated via crosslinker to DOPE in the lipid bilayer of a mesoporous silica protocell
Take B1: the Kd turned out to be 1.05 nM.
